Target: T1, yeast Smt3 (Smt3 6xHis) (yeast, UniProt Q12306 1-101 = SUMO)
T1 construct: Smt3 (SUMO), yeast; Uniformly 13C,15N labelled for the NMR experiments; also called SUMO; U-[13C,15N]; Smt3; source: E. coli BL21 (DE3)pLysS, purified (Ni-NTA)
Assay: ITC; 2 mM peptide in the syringe, 150 μM or 300 μM Smt3 in the cell; 20 mM NaPi 100 mM NaCl pH 7.5, 10% DMSO, 25°C; single binding site model
Conditions: both partners purified

T1 sequence (Q12306 whole entry): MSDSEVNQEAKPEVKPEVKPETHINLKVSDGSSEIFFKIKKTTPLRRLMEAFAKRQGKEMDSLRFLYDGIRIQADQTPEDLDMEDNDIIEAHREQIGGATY

## ENDIIMVSTDE [synthetic Mre11-SIM3 peptide, wild type]
  Kd: 20 ± 10 µM

Source: publication doi:10.1101/2025.07.08.663703, “Recruitment of Mre11 to recombination sites during meiosis” (bioRxiv, 2025)
